Residue numbers refer to the chain shown, from its start. Names may count otherwise. Read-outs that look alike come from different tables or passages of the source. One block for each binder: values may come before it.
Key:
[1] = biological target: T1, ubiquitin (Ub) (mouse, UniProt P0CG49 1-76); experiment: pull-down
[2] = biological target: T1, ubiquitin (Ub); experiment: SPR
[3] = biological target: T1, ubiquitin (Ub); experiment: SPR; remark: listed apart in the source
[4] = biological target: M1-linked diUb (M1-Ub2) (human, UniProt P0CG47); experiment: pull-down
[5] = biological target: K48-Ub2 synthesized from K48R Ub and D77 Ub (for crystallization) (mouse, UniProt P0CG49, K48R | D77); experiment: crystal structure

- binding result [5]: binds
B4: CSB WHD (residues 1401-1493) with the Q1413R variant allele, GST cleaved (domain or fragment)
chain: LPERLESESGHLREASALLPTTEHDDLLVEMRNFIAFQAHTDGQASTREILQEFESKLSASQSCVFRELLRNLCTFHRTSGGEGIWKLKPEYC

- binding result [1]: binds
B5: GST-fused CSB C-terminal region (residues 1386-1493) (domain or fragment)
chain: SSSLLAKMRARNHLILPERLESESGHLQEASALLPTTEHDDLLVEMRNFIAFQAHTDGQASTREILQEFESKLSASQSCVFRELLRNLCTFHRTSGGEGIWKLKPEYC

The next lines start with the binder.

B1: GST-fused CSB C-terminal region (residues 1412-1493) (domain or fragment)
chain: LQEASALLPTTEHDDLLVEMRNFIAFQAHTDGQASTREILQEFESKLSASQSCVFRELLRNLCTFHRTSGGEGIWKLKPEYC
- binding result [1]: binds

B2: GST-fused CSB WHD (residues 1401-1493), wild type (domain or fragment)
chain: B4 chain with R13Q
- Kd [2]: 36.1 µM
- Kd [3]: 35.6 µM
- binding result [4]: binds

B3: GST-fused CSB WHD, Q1413R variant allele (domain or fragment)
chain: B4 chain
- Kd [3]: 51.5 µM
